Source: patent publication US20130115589A1 (UNIVERSITY OF TOKYO, published 2013)

Biological target: T1, wild-type glycoprotein B (gB) of HSV-1(F) (Herpes simplex virus 1 (HSV-1(F)), UniProt P06436 30-903)
T1 construct: whole, on cells; also called wild-type gB
Assay: flow cytometry on infected 293T cells, PE-labeled anti-human IgG secondary antibody

B1: NMHC-IIArod-Ig (fusion protein of the C terminal fragment of NMHC-IIA and Ig) (Fc fusion)
chain: LAQAKENEKKLKSMEAEMIQLQEELAAAERAKRQAQQERDELADEIANSSGKGALALEEKRRLEARIAQLEEELEEEQGNTELINDRLKKANLQIDQINTDLNLERSHAQKNENARQQLERQNKELKVKLQEMEGTVKSKYKASITALEAKIAQLEEQLDNETKERQAACKQVRRTEKKLKDVLLQVDDERRNAEQYKDQADKASTRLKQLKRQLEEAEEEAQRANASRRKLQRELEDATETADAMNREVSSLKNKLRRGDLPFVVPRRMARKGAGDGSDEEVDGKADGAEAKPAE
notes: also called soluble C-terminal fragment of NMHC-IIA; soluble form of NMHC-IIA
B1: binds.
